Measured values published in patent US11312781B2, “Antigen binding molecules that bind LIGHT” (Capella Bioscience Ltd., priority 2018, dated 2022).
Where a chain is given by its changes, count along the chain named. Blank lines part the entries; values can stand above or below the molecule they belong to.

Experiments:
[1] = system: wild type and mutated membrane LIGHT; assay: Alanine scanning mutagenesis of membrane LIGHT and flow cytometry (HEK293FF cells); type: binding, human; conditions: single substitutions F57A to E86A and four amino acid substitutions 60-63 to 96-99
Source text: The full length LIGHT gene was synthesized by GeneArt (ThermoFisher Scientific) and cloned into the mammalian expression vector pcDNA 3.1(+). The following Ala mutations were introduced into the LIGHT gene: 30 single amino acid alanine substitutions from F57A to E86A; 2 single amino acid alanine substitutions; G188A, R189A; one serine substitution, A190S; 17 single amino acid alanine substitutions; T191A to V207A and 10 four amino acid alanine substitutions, 60-63, 64-67, 68-71, 72-75, 76-79, 80-83, 84-87, 88-91, 92-95 and 96-99. Constructs were reconstituted according to manufacture instructions, using DEPC-treated and sterile filtered water. Competent TOP10 E. coli cells were transformed with 100 ng of each construct and a single colony from each construct was picked and used to inoculate 10 ml of LB/carb100/glu2% medium and grown overnight at 37° C., 200 rpm. The extraction of the construct DNA was performed using the Qiagen QIAprep Spin Miniprep Kit (250) and the concentration was determined by measuring the O.D. at 260 nm in a spectrophotometer.
HEK293FF cells were cultured in Freestyle™293 expression medium (ThermoFisher scientific cat. no. 12338018) supplemented with 2 mM L-Glutamine. The day of transfection the cells were seeded in a 24-well plate at 0.6×10^6 cells/well. Lipofectamine 2000 (ThermoFisher scientific), 3 μl, was mixed with 50 μl OptiMEM medium (GIBCO) and then added to 50 μl Opti-MEM medium containing 3 ug plasmid DNA and incubated for 20 min at RT to form DNA-Lipofectamine 2000 complexes which were then added to the HEK293FF cells and incubated at 37° C., 5% CO2 for 24 hours. For each construct, in duplicate, 0.60×10^6 cells/well were used in a 96 well round bottom plate. Cells were centrifuged for 3 minutes at 300×g at 4° C., the supernatant discarded and the cells washed with 150 μl FACS buffer (0.5% FBS in phosphate buffered saline). This process was repeated 3 times. For each construct, […] cells/well were incubated with anti-LIGHT antibodies at the EC50 concentration and with positive controls of anti-LIGHT mAb MAB664 (R&D Systems), mAb F19 (EP2292663) or LTBR-Fc (R&D Systems), in a final volume of 50 μl/well for 30 min at 4° C., with shaking. The wells were washed 3 times as above and 50 μl/well of goat anti-human IgG FITC (1:1500 dilution in FACS buffer, SIGMA F9512-2ML) or goat anti-mouse APC (1/500 dilution in FACS buffer, BDBioscience 550826), as appropriate, was added to the wells and incubated for 30 min at 4° C. protected from the light, with shaking. The cells were then washed as above, resuspended in 100 μl of FACS buffer and binding of the antibodies to the constructs was measured using flow cytometry and a total of 10,000 cells were acquired for each sample. Controls of buffer and secondary antibody only as well as HEK293FF non transfected cells were also used.
All of the mAbs of this invention show a similar profile in that their epitope is located at amino acids 188-197 of LIGHT. […] The epitope of the mAbs of this invention defined by alanine scanning mutagenesis are residues 188-197 of LIGHT. This is visually depicted in FIG. 8 utilising a 3D visualisation of the LIGHT trimer from the crystal structure of LIGHT from Liu et al. (Structure 22: 1252-62; 2014). This would result in the mAbs binding to the “tip” of the LIGHT trimer and explaining the 1:1 binding. The impact of this epitope would result in […] less dosing of mAb 3B04 being required to neutralise membrane LIGHT compared to, for example, mAbs F19 and F23 (of EP2292663) which bind both soluble and membrane LIGHT equally and bind LIGHT in the ratio 3:1.

[2] = biological target: T1, DcR3 binding to membrane LIGHT (EL4-LIGHT cells) (Homo sapiens, UniProt O43557); assay: Competition binding of anti-membrane LIGHT antibodies with DcR3-His on EL4-LIGHT cells; conditions: mAb at up to 100 nM
T1 construct: expressed in transfected cells; host or cells: EL4 mouse lymphoma cells, stably transduced
Description: DcR3 (TNFRSF6B) is a decoy receptor that competes with receptors for ligand binding. DcR3 can bind and neutralise LIGHT with high affinity and TL1A and FasL with lower affinity (Zhan C et al. Structure. 2011, 19:162-71 “Decoy strategies: the structure of TL1A:DcR3 complex”). Stably transduced LIGHT-expressing EL4 cells (mouse lymphoma cell line; EL4-LIGHT) were used for the flow cytometry-based competition-binding analysis.
EL4-LIGHT cells (0.25×10^6) were preincubated with anti-membrane LIGHT mAbs (0-300 nM) for 15 min at 4° C. followed by incubation with DcR3-His tagged (1 nM, Creative BioMart; ref:TNFRSF6B-552H, lot:962512) for 30 min at 4° C. The samples were then incubated with mouse anti-histag antibody (diluted 1:500, Biolegend, cat. no. 652502) for 30 minutes at 4° C., followed by incubation with anti-mouse APC (dil 1:500, BDBiosciences, cat. no. 550826) for 30 minutes at 4° C. The tubes were washed three times after each of the detection antibody stages and flow cytometry analysis was performed. Specific mean fluorescence intensity (MFI) obtained from the binding of DcR3-His to LIGHT on EL4 cells were used to determine the levels of competition binding.

T1 sequence (O43557 whole entry): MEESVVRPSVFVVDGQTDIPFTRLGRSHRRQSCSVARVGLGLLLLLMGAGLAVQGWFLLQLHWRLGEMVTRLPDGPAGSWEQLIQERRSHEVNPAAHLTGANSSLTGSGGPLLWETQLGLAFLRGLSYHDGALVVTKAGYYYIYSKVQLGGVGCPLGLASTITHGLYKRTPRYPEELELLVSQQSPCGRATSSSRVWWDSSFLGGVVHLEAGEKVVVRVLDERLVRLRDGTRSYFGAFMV

B1: 3B04: parental mouse anti-membrane LIGHT antibody, VL SEQ ID NO 1, VH SEQ ID NO 5; tested as chimeric human IgG4 mAb (antibody, listed as Homo sapiens, V domains shown)
VH: QVQLQQPGAELVRPGASVTLSCKASGYTFTDYEMHWVKQTPVHGLEWIGEIDPETGDTAYSQKFKGKATLTADKSSSTAYMEFRSLTSEDSAVYYCSRETDYFFDYWGQGTTLTVSS
VL: DIQMTQTPASLSASVGETVTITCGASENIYGALNWYQRKQGKSPQLLIYGATNLADGMSSRFSGSGSGRQYSLKISSLHPDDFATYYCQNVLTTPWTFGGGTKLEIKR
Binding to LIGHT alanine substitution constructs versus WT LIGHT [1]: no difference in binding
Inhibition of DcR3 binding to membrane LIGHT [2]: only partially inhibit

Inhibition of DcR3 binding to membrane LIGHT [2]: only partially inhibit
B2: 3D12: parental mouse anti-membrane LIGHT antibody, VL SEQ ID NO 41, VH SEQ ID NO 45; tested as chimeric human IgG4 mAb (antibody, listed as Homo sapiens, V domains shown)
VH: B1 VH with G26D, Y32S, M34I, D57G, S61N, F83L
VL: B1 VL with T7S, F83V, T93S
Binding to LIGHT alanine substitution constructs versus WT LIGHT [1]: no difference in binding
